Source: article PMC9237092, “Structural basis for defective membrane targeting of mutant enzyme in human VLCAD deficiency” (Nature Communications, 2022)

Target: the molecule itself
Experiment: SEC; Superdex 200 10/300 GL, 4 °C, 250 mM NaCl, 50 mM Tris, pH 8.0; purified VLCAD proteins; peak at ~150 kDa

| Protein | stoichiometry N |
| --- | --- |
| full-length human VLCAD (very long-chain acyl-CoA dehydrogenase) lacking its cleavable leader sequence, wild type (enzyme, UniProt P49748 41-655, looked up, mature protein aa 1-615. numbers count on: the mature protein; pET19b vector; also called wild-type VLCAD; full-length VLCAD; source: E. coli BL21(DE3), purified (Ni-NTA, SEC)) AGGAAQLALDKSDSHPSDALTRKKPAKAESKSFAVGMFKGQLTTDQVFPYPSVLNEEQTQFLKELVEPVSRFFEEVNDPAKNDALEMVEETTWQGLKELGAFGLQVPSELGGVGLCNTQYARLVEIVGMHDLGVGITLGAHQSIGFKGILLFGTKAQKEKYLPKLASGETVAAFCLTEPSSGSDAASIRTSAVPSPCGKYYTLNGSKLWISNGGLADIFTVFAKTPVTDPATGAVKEKITAFVVERGFGGITHGPPEKKMGIKASNTAEVFFDGVRVPSENVLGEVGSGFKVAMHILNNGRFGMAAALAGTMRGIIAKAVDHATNRTQFGEKIHNFGLIQEKLARMVMLQYVTESMAYMVSANMDQGATDFQIEAAISKIFGSEAAWKVTDECIQIMGGMGFMKEPGVERVLRDLRIFRIFEGTNDILRLFVALQGCMDKGKELSGLGSALKNPFGNAGLLLGEAGKQLRRRAGLGSGLSLSGLVHPELSRSGELAVRALEQFATVVEAKLIKHKKGIVNEQFLLQRLADGAIDLYAMVVVLSRASRSLSEGHPTAQHEKMLCDTWCIEAAARIREGMAALQSDPWQQELYRNFKSISKALVERGGVVTSNPLGF | 2 |
| full-length human VLCAD A450P (enzyme, UniProt P49748 41-655, looked up, Mutation observed in patients with VLCAD deficiency; made by site-directed mutagenesis of the pET19b construct; also called A450P variant; source: E. coli BL21(DE3), purified (Ni-NTA, SEC)) AGGAAQLALDKSDSHPSDALTRKKPAKAESKSFAVGMFKGQLTTDQVFPYPSVLNEEQTQFLKELVEPVSRFFEEVNDPAKNDALEMVEETTWQGLKELGAFGLQVPSELGGVGLCNTQYARLVEIVGMHDLGVGITLGAHQSIGFKGILLFGTKAQKEKYLPKLASGETVAAFCLTEPSSGSDAASIRTSAVPSPCGKYYTLNGSKLWISNGGLADIFTVFAKTPVTDPATGAVKEKITAFVVERGFGGITHGPPEKKMGIKASNTAEVFFDGVRVPSENVLGEVGSGFKVAMHILNNGRFGMAAALAGTMRGIIAKAVDHATNRTQFGEKIHNFGLIQEKLARMVMLQYVTESMAYMVSANMDQGATDFQIEAAISKIFGSEAAWKVTDECIQIMGGMGFMKEPGVERVLRDLRIFRIFEGTNDILRLFVALQGCMDKGKELSGLGSPLKNPFGNAGLLLGEAGKQLRRRAGLGSGLSLSGLVHPELSRSGELAVRALEQFATVVEAKLIKHKKGIVNEQFLLQRLADGAIDLYAMVVVLSRASRSLSEGHPTAQHEKMLCDTWCIEAAARIREGMAALQSDPWQQELYRNFKSISKALVERGGVVTSNPLGF | 2 |
| full-length human VLCAD L462P (enzyme, UniProt P49748 41-655, looked up, Mutation observed in patients with VLCAD deficiency; made by site-directed mutagenesis of the pET19b construct; also called L462P mutant; source: E. coli BL21(DE3), purified (Ni-NTA, SEC)) AGGAAQLALDKSDSHPSDALTRKKPAKAESKSFAVGMFKGQLTTDQVFPYPSVLNEEQTQFLKELVEPVSRFFEEVNDPAKNDALEMVEETTWQGLKELGAFGLQVPSELGGVGLCNTQYARLVEIVGMHDLGVGITLGAHQSIGFKGILLFGTKAQKEKYLPKLASGETVAAFCLTEPSSGSDAASIRTSAVPSPCGKYYTLNGSKLWISNGGLADIFTVFAKTPVTDPATGAVKEKITAFVVERGFGGITHGPPEKKMGIKASNTAEVFFDGVRVPSENVLGEVGSGFKVAMHILNNGRFGMAAALAGTMRGIIAKAVDHATNRTQFGEKIHNFGLIQEKLARMVMLQYVTESMAYMVSANMDQGATDFQIEAAISKIFGSEAAWKVTDECIQIMGGMGFMKEPGVERVLRDLRIFRIFEGTNDILRLFVALQGCMDKGKELSGLGSALKNPFGNAGLLPGEAGKQLRRRAGLGSGLSLSGLVHPELSRSGELAVRALEQFATVVEAKLIKHKKGIVNEQFLLQRLADGAIDLYAMVVVLSRASRSLSEGHPTAQHEKMLCDTWCIEAAARIREGMAALQSDPWQQELYRNFKSISKALVERGGVVTSNPLGF | 2 |
